Test results: PMC11574364

T1: ARL10 (human, UniProt Q8N8L6 1-244)
T1 sequence: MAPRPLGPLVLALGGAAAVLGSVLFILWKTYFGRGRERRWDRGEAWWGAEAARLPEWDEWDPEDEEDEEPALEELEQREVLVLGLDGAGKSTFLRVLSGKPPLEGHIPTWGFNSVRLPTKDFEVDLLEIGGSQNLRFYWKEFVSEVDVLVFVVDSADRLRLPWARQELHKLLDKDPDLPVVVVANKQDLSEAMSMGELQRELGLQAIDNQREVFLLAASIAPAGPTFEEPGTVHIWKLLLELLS

T2: QKI (human ORF array) (human, UniProt Q96PU8 1-341)
T2 sequence: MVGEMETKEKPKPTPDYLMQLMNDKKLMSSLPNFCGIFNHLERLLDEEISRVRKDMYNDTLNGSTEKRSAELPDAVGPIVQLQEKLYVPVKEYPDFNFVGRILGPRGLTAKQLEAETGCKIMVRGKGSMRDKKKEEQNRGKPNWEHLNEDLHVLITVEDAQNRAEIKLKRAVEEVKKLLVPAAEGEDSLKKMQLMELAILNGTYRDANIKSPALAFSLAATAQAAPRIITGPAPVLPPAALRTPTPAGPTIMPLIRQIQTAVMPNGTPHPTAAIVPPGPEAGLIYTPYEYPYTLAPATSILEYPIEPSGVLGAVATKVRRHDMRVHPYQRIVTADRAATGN

T3: ZNF597 (human, UniProt Q96LX8 1-424)
T3 sequence: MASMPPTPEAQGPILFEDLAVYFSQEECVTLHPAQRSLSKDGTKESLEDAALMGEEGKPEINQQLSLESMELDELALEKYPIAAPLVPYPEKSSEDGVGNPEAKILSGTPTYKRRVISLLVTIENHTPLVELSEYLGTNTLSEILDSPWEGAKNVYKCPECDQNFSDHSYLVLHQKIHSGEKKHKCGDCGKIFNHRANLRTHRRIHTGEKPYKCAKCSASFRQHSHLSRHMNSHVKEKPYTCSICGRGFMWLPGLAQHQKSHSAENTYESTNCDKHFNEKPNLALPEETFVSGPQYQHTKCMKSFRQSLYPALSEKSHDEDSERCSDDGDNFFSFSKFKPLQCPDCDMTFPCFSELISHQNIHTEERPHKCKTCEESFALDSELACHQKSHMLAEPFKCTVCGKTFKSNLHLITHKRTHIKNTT

T4: ISY1 (human, UniProt Q9ULR0 1-285)
T4 sequence: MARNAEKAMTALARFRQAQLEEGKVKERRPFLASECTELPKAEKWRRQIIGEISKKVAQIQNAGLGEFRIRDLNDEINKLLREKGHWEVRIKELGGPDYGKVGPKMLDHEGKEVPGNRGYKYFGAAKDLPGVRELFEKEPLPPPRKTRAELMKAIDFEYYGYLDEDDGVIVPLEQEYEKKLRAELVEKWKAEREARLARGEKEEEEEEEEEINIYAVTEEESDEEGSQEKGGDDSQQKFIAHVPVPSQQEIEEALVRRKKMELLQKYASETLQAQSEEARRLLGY

T5: QKI (recombinant His-QKI) (UniProt Q96PU8)
T5 sequence: T2 sequence

T6: HIS-QKI (RNA-binding domain array) (human, UniProt Q96PU8 1-341)
T6 sequence: T2 sequence

B1: miR-130b (internal labeling) (ssRNA)
RNA: CAGUGCAAUGAUGAAAGGGCAU
B2: let-7b (internal labeling) (ssRNA)
RNA: UGAGGUAGUAGGUUGUGUGGUU
modifications: 5' phosphate; amino-C6 U at position 18
B3: miR-21 (internal labeling) (ssRNA)
RNA: UAGCUUAUCAGACUGAUGUUGA
B4: miR-21 biotin/Cy3 (ssRNA)
RNA: UAGCUUAUCAGACUGAUGUUGA
B5: let-7c biotin/Cy3 (ssRNA)
RNA: UGAGGUAGUAGGUUGUAUGGUU
B6: let-7b biotin/Cy3 (ssRNA)
RNA: UGAGGUAGUAGGUUGUGUGGUU
B7: miR-130b biotin/Cy3 (ssRNA)
RNA: CAGUGCAAUGAUGAAAGGGCAU
B8: let-7a biotin/Cy3 (ssRNA)
RNA: UGAGGUAGUAGGUUGUAUAGUU
B9: let-7d biotin/Cy3 (ssRNA)
RNA: AGAGGUAGUAGGUUGCAUAGUU

Target: T1, ARL10
Test: protein microarray; FP: 20 mM HEPES pH 7.4, 150 mM NaCl, 2 mM MgCl2, 1 U/ul RiboLock, 10 mM DTT, 3 nM Cy3-RNA, 5 min, room temperature; domain array: 20 mM Tris-HCl pH 7.4, 200 mM
Conditions: not given

Molecule	binding result
B1	binds
B2	binds
B3	binds

Target: T2, QKI (human ORF array)
Test: as above
Conditions: not given

Molecule	binding result
B2	binds

Target: ZNF490 (human, UniProt Q9ULM2 1-529)
Test: as above
Conditions: not given

Sequence of ZNF490 (Q9ULM2 whole entry): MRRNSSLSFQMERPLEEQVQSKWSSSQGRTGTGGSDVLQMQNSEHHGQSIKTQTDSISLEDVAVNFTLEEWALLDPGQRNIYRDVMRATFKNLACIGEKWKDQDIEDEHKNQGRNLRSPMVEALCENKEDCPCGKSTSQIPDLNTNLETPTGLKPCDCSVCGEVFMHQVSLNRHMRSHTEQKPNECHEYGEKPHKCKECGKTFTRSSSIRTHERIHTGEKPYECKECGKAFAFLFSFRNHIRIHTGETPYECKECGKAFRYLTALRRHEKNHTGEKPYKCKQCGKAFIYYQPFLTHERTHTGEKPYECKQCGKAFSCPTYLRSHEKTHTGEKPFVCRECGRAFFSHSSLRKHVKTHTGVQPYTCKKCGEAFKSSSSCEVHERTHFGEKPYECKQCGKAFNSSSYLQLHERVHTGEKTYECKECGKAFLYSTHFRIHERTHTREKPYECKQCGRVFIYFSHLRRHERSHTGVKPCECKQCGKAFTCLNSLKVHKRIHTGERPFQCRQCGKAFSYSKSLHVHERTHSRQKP

Molecule	binding result
B1	binds
B2	binds
B3	binds

Target: T3, ZNF597
Test: as above
Conditions: not given

Molecule	binding result
B1	binds
B2	binds
B3	binds

Target: ZIC3 (human, UniProt O60481 1-467)
Test: as above
Conditions: not given

Sequence of ZIC3 (O60481 whole entry): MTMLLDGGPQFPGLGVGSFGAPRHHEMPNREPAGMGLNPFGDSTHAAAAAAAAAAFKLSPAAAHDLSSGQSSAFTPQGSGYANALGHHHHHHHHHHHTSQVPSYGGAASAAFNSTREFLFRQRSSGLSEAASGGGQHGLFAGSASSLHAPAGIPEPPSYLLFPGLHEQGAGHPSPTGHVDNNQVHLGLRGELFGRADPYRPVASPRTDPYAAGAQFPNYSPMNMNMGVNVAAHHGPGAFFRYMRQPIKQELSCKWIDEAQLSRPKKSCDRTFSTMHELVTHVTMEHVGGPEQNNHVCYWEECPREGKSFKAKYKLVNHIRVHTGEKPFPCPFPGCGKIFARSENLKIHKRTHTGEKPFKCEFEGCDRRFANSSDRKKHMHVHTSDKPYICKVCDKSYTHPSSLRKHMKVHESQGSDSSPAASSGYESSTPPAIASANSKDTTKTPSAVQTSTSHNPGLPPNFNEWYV

Molecule	binding result
B1	binds
B2	binds
B3	binds

Target: T4, ISY1
Test: as above
Conditions: not given

Molecule	binding result
B1	binds
B2	binds
B3	binds

Target: T5, QKI (recombinant His-QKI)
Test: fluorescence polarization
Conditions: 2 mM Mg2+; FP: 20 mM HEPES pH 7.4, 150 mM NaCl, 2 mM MgCl2, 1 U/ul RiboLock, 10 mM DTT, 3 nM Cy3-RNA, 5 min, room temperature; domain array: 20 mM Tris-HCl pH 7.4, 200 mM …

Molecule	Kd
UGAGGUAGUAGGUUGUGUGGUU [let-7b-Cy3]	8.07 nM
UAGCUUAUCAGACUGAUGUUGA [miR-21-Cy3]	48.5 nM
CAGUGCAAUGAUGAAAGGGCAU [miR-130b-Cy3]	7.03 nM

Target: T6, HIS-QKI (RNA-binding domain array)
Test: protein microarray probed with biotinylated miRNA; Domain array: 20 mM Tris-HCl pH 7.4, 200 mM KCl, 0.2 mM EDTA, 0.05% NP40, 2 ug/ul heparin, overnight 4 C. ORF array: PBS pH 7.0 with RNase inhibitor, 100 ng RNA; high values mean tight binding
Conditions: not given

Molecule	binding signal
B4	26.4 ± 0.354 fluorescence intensity
B5	1280 ± 235 fluorescence intensity
B6	1340 ± 56.7 fluorescence intensity
B7	428 ± 18.2 fluorescence intensity
B8	336 ± 27.5 fluorescence intensity
B9	1210 ± 167 fluorescence intensity
